Our source for the protein stability index values is the supplement of paper PMC10567573.

A short description of the data set: protein stability index of a GFP-peptide fusion (GPS, HEK-293T) (PSI 1-6); higher = more stable.
Setting [1] is: treatment: DMSO, c terminus: native.
Setting [2] is: treatment: MLN4924 1 uM, 8 h, c terminus: native.
Setting [3] is: treatment: DMSO, c terminus: a fixed tail appended.
The mark [4] stands for this setting: treatment: MLN4924 1 uM, 8 h, c terminus: a fixed tail appended.

± gives the standard deviation.
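Further: 24-mer peptide tiles fused after GFP, lentivirally expressed, FACS-sorted into six equal bins by GFP/DsRed ratio, decoded by Illumina sequencing, PSI is the read-weighted mean bin number.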

Sequence HYICTLKQPHLLLEKYSYYLISG [PNLIPRP1] returned a protein stability index under setting [1] of 3.31 ± 0.66 and a protein stability index under setting [2] of 3.39 ± 0.14.
Take HYYPKLMSIMGNVLRFLPAFVRMK [GFOD1]: the protein stability index was 2.41 ± 0.12 under setting [3] and 2.24 ± 0.12 under setting [4].
Taken in the same sequence, the figures for IANYELVYKDGEHGEEQRITIEPG [PTPRD] were 4.64 ± 0.34 and 4.8 ± 0.28.
In the case of IAYYSYIYSVVDLGMYQKVTSYCR [SLC19A2], the protein stability index is 3.28 ± 0.38 under setting [3] and 2.62 ± 0.071 under setting [4].
Taken in the same sequence, the figures for ICLEMFTKPVVILPCQHNLCRKCA [TRIM63] were 2.2 ± 0.054 and 2.41 ± 0.13.
For IDILWRQDIDLGAGREVFDYSHRQ [NFE2L1], in that order: 2.24 ± 1 and 2.49 ± 0.34.
For IENRDVAKSVLKERGLKKIRLGIE [BTBD10], in that order: 3.36 ± 0.28 and 3.32 ± 0.13.
As for IFRCFCPVFLHSQMLWELVLLGEP [DENND6A], the protein stability index runs as follows: under setting [3], 3.17 ± 0.39; under setting [4], 2.87 ± 0.33.
For IGAAPFSGRRNWCSYVVTRTISCH [EMID1], in that order: 2.23 ± 0.27 and 2.07 ± 0.23.
Taken in the same sequence, the figures for IGAFLNLVVLRFLTMNSEDERRDA [KCNK9] were 3.27 ± 0.77 and 3.02 ± 0.6.
Taken in the same sequence, the figures for IGGSGFLGQHMVEQLLARGYAVNV [NSDHL] were 2.16 ± 0.054 and 2.23 ± 0.2.
Consider IGTMAGITTPIIDTFKVPKEMFTV [SLC6A17], for which the protein stability index is, setting by setting: under setting [3], 2.45 ± 0.3; under setting [4], 2.71 ± 0.24.
Taken in the same sequence, the figures for IHFDSYITCVSGAIVDLISRQYDK [FBXO33] were 2.7 ± 0.47 and 2.81 ± 0.53.
For IIEELGEQRDQLERTKSRLVNTSE [VTI1B], in that order: 4.57 ± 0.41 and 4.63 ± 0.15.
For IKMILKMVQLDSIEDLEVTCTWKL [PRAME], in that order: 2.89 ± 0.29 and 2.99 ± 0.42.
With ILNLERDVEDLQRDKARLLREKVE [NFE2L1], the protein stability index reads like this: under setting [3], 3.96 ± 0.51; under setting [4], 3.93 ± 0.41.
For ILSKMPKPKPPPNSEGEQGPNGSQ [CCNC], in that order: 5.07 ± 0.23 and 5.1 ± 0.12.
Taken in the same sequence, the figures for IMGNLLIIVTIMASQSLGSPMYFF [OR4A15] were 3.35 ± 0.29 and 3.52 ± 0.3.
For IPAVGSSLSEALDLIESDPDAWCD [MYBL2], in that order: 4.47 ± 0.58 and 4.58 ± 0.23.
With IRLQAELEEGENPVPAFQSDGTDE [SMG5], the protein stability index under setting [3] was 5.27 ± 0.14 and the protein stability index under setting [4] was found to be 5.12 ± 0.23.
Regarding IRSPRPASVATWAIFVHRVGQPSI [CTBP1-DT], the protein stability index is, setting by setting: under setting [3], 2.46 ± 0.5; under setting [4], 2.47 ± 0.31.
Taken in the same sequence, the figures for ISCPTCRRETVLFTDYGLAALAVN [RNF208] were 2.15 ± 0.13 and 2.22 ± 0.28.
In the case of ISPKARCLIRSLLRREPSERLTAP [TRIB1], the protein stability index came to 2.22 ± 0.24 under setting [3] and 2.33 ± 0.39 under setting [4].
Taken in the same sequence, the figures for ISQYEDDLPPPPADPVLDLPLPPP [APBB1IP] were 4.93 ± 0.18 and 4.913 ± 0.048.
Taken in the same sequence, the figures for ITFPSLESCEEKNQLILTASADRT [WDR41] were 4.02 ± 0.29 and 4.1 ± 0.35.
For ITIGYRVYHSYDLPWFRTLSWYFL [CDS1], in that order: 2.92 ± 0.42 and 3.1 ± 0.6.
On to ITLFLLGAAKGKEVCYEDLGCFSD [PNLIPRP1], for which the protein stability index runs as follows: under setting [3], 2.74 ± 0.43; under setting [4], 3.24 ± 0.43.
Taken in the same sequence, the figures for IVADIELENVLDPDSFYELKSQPL [TFE3] were 2.65 ± 0.47 and 3.09 ± 0.51.
Taken in the same sequence, the figures for IVADILLYVVIPTRRSTAEAFQIV [SPNS1] were 2.97 ± 0.34 and 3.1 ± 0.18.
For IVAIIPYFITLGTEIAEQEGNQKG [KCNA1], in that order: 2.87 ± 0.71 and 2.55 ± 0.48.
As to IVTVHYGCASFIYLRPQSNYSSSQ [OR10K2], the protein stability index reads like this: under setting [3], 2.92 ± 0.39; under setting [4], 2.95 ± 0.56.
For IYNSHLVVHQRVHSGEKPYKCSDC [ZNF232], in that order: 2.9 ± 0.23 and 3.02 ± 0.28.
For IYNSNIFTDPFFIVETLCIIWFSF [KCNA1], in that order: 3.23 ± 0.2 and 3.17 ± 0.29.
Taken in the same sequence, the figures for KAAEGGLSSPEFSELCIWLGSQIK [FAM98B] were 2.08 ± 0.12 and 2.03 ± 0.4.
Take KADENNGFGSKNTAFCTHVFPETA [TBX5]: the protein stability index under setting [3] worked out at 4.01 ± 0.47 and the protein stability index under setting [4] worked out at 3.86 ± 0.2.
For KCDQPFFWNFKQMWDSKKIGLRQH [WDFY2], in that order: 2.29 ± 0.36 and 2.65 ± 0.42.
Taken in the same sequence, the figures for KDPYGKPVDLWACGVILYILLVGY [CAMK2A] were 3.16 ± 0.97 and 3.07 ± 0.32.
Taken in the same sequence, the figures for KEDKIMLDDRKNEEDGGADEHEHP [MIA2] were 5.52 ± 0.063 and 5.55 ± 0.19.
Consider KENIEKDEDDVDQELANIDPTWIE [SRPK2], for which the protein stability index came out at 5.56 ± 0.28 under setting [3] and 5.53 ± 0.2 under setting [4].
For KFSIPDLDRHQLPLDDALLSFAHA [DPCD], in that order: 2.84 ± 0.21 and 2.94 ± 0.35.
For KGERGEDSSEEKHLEEPGETQNAF [CHGB], in that order: 5.61 ± 0.19 and 5.62 ± 0.13.
Taken in the same sequence, the figures for KIGNSAFARYPNGVVVHYFCSKEV [VPS39] were 2.41 ± 0.48 and 2.33 ± 0.32.
On to KILGYLNTNVLSRDLIPPHVNFSH [SLC6A17], for which the protein stability index reads like this: under setting [3], 2.2 ± 0.33; under setting [4], 2.375 ± 0.022.
As for KIMIIICCVILGIVIASTVGGIFA [STX1A], the protein stability index under setting [3] turned out to be 2.04 ± 0.38 and the protein stability index under setting [4] was determined as 2.23 ± 0.41.
For KKCCIPETRRRMEMAFNTRCKEEN [NLN], in that order: 3.57 ± 0.25 and 3.75 ± 0.22.
Taken in the same sequence, the figures for KKHNVTAVVRLNKKIYEAKRFTDA [CDC14A] were 2.73 ± 0.2 and 2.49 ± 0.24.
For KKHYRLQFYMFGWTHVTLLIVVTQ [CDS2], in that order: 2.89 ± 0.55 and 2.58 ± 0.71.
KKREFRFHPIKETVVEEPVDITPY [INTS3]: the protein stability index is, setting by setting: under setting [3], 2.83 ± 0.51; under setting [4], 3.59 ± 0.68.
Taken in the same sequence, the figures for KKRKRQEKIDKLEQDMERRKADFK [ZC3H15] were 4.7 ± 0.4 and 4.77 ± 0.1.
Taken in the same sequence, the figures for KKRRLPPVHIHPAFARQAAQEPSA [FOXJ1] were 3.87 ± 0.25 and 3.82 ± 0.36.
Taken in the same sequence, the figures for KLHDFFSYLMDHFIPSSHNDRDFL [PPEF2] were 2.46 ± 0.51 and 2.53 ± 0.64.
With KLSEHLRYCDSILREMLSKKHAAY [BRD3], the protein stability index stood at 2.28 ± 0.21 under setting [3] and 2.14 ± 0.21 under setting [4].
Taken in the same sequence, the figures for KMPVLKAEASHYNSDLNNLLFCCQ [RHOBTB3] were 2.27 ± 0.41 and 2.29 ± 0.15.
On to KNLFGPPLESAFDHEDFTGSSSLG [FCHO1], for which the protein stability index stood at 4.22 ± 0.13 under setting [3] and 4.37 ± 0.7 under setting [4].
With KNTEVSSMECEKNLYWICNKPYK [CD69], the protein stability index under setting [1] was 2.97 ± 0.2 and the protein stability index under setting [2] amounted to 2.86 ± 0.61.
Turning to KNYNYGMHYCAVPPRGPLGQGAMF [NEUROD6], the protein stability index by setting is: under setting [3], 2.18 ± 0.44; under setting [4], 2.47 ± 0.34.
Consider KPTRRDASPESPSKKGPIPIRRH [GNAS], for which the protein stability index is, setting by setting: under setting [1], 4.71 ± 0.19; under setting [2], 5.21 ± 0.49.
KQDSLVILTIMATLKIRNSNFYTV [TMEM106C]: the protein stability index was 3.25 ± 0.41 under setting [3] and 3 ± 0.67 under setting [4].
For KQEQSIISEYEKSLQFDEKCLSIM [RPAIN], in that order: 3.67 ± 0.12 and 3.69 ± 0.23.
For KQLRQVTKEEGLALAREFSCPFFE [RIT1], in that order: 3.27 ± 0.29 and 3.49 ± 0.33.
For KQSFLDGGKGHHLPSENLGKEPLD [TOR1AIP2], the protein stability index turned out to be 5.13 ± 0.11 under setting [3] and 5.01 ± 0.21 under setting [4].
Taken in the same sequence, the figures for KRDDYLEWPEYFMAVAFLSAQRSK [DCTD] were 2.27 ± 0.19 and 2.12 ± 0.35.
Taken in the same sequence, the figures for KSLEIEEKINKIKWLPQQNAAHSL [PPP2R2C] were 3.66 ± 0.21 and 3.67 ± 0.13.
For KSQRQPRTSPSCAFRSDDTKGHPR [CDC14A], the protein stability index was found to be 4.49 ± 0.16 under setting [3] and 4.62 ± 0.2 under setting [4].
Taken in the same sequence, the figures for KTERINALELLGATFVDKKRDLLG [FEM1C] were 3.23 ± 0.1 and 3.4 ± 0.22.
For KTLYVGNLSRDVTEALILQLFSQI [TIA1], in that order: 2.6 ± 0.51 and 2.73 ± 0.42.
Taken in the same sequence, the figures for KVDGPRSPSYGRSRSRSRSRSRSR [SRSF1] were 5.27 ± 0.26 and 5.46 ± 0.14.
Take KVLLSGATFLVTFGNSEKPETMTC [ZFYVE21]: the protein stability index came out at 2.43 ± 0.27 under setting [3] and 2.23 ± 0.72 under setting [4].
Taken in the same sequence, the figures for KVPNHYIAIPEWFLSENATVAAET [CPXM2] were 3.22 ± 0.43 and 3.32 ± 0.47.
For KVSQWWERLTKQEKRPLFLAPDFD [HACD3], in that order: 2.34 ± 0.31 and 2.55 ± 0.089.
For KYEKLRGDVAIKLKFLEENKIKVM [ARFIP2], in that order: 2.22 ± 0.37 and 2.48 ± 0.27.
In the case of KYSYTSTSDDNLLKNIELFDKLAL [KCTD13], the protein stability index is, setting by setting: under setting [3], 2.63 ± 0.42; under setting [4], 2.59 ± 0.26.
